# How the values were obtained:
# [1] = molecular target: rCpsB-His (Streptococcus suis); test: SPR
# CpsB (rCpsB) = molecular target: T1, CpsB (rCpsB) (Streptococcus suis, UniProt Q9X4U8); test: colorimetric phosphatase assay, absorbance […] nm; format: biochemical; conditions: 50 nM enzyme, 16 uM pNPP, 1 mM MnCl2, 20 mM Tris pH 8.0, 150 mM NaCl, 37 °C
# T1 construct: gene cps2D; rs02785 in pET-28a, His-tag, expressed in E. coli BL21(DE3), HisTrap purified; capsule locus tyrosine phosphatase (PHP type, Mn-dependent)
# [2] = molecular target: CcpS, as crystallised (Streptococcus suis); test: crystal structure; sitting-drop vapour diffusion at 277 K; 0.1 M Tris-HCl pH 8.0, 15% ethanol; 1.6 Å; molecular replacement with IreB (PDB 5US5)
compound,measurement,setting,value
rCcpS-T4VT7V (natural protein),fold higher affinity than rCcpS-T4ET7E,[1],> 10 fold
"O=[N+]([O-])c1ccc(OP(=O)(O)O)cc1 [pNPP, p-nitrophenyl phosphate]",relative activity,CpsB (rCpsB),Colorimetric phosphatase assays of CpsB activity were performed using p-nitrophenyl phosphate (pNPP)
"CcpS, as crystallised (natural protein)",stoichiometry N,[2],2

# Source: publication PMC10148854, “A link between STK signalling and capsular polysaccharide synthesis in Streptococcus suis” (Nature Communications, 2023)
